# Values joined by “and” are separate entries in the source; they are usually repeats but may differ in a detail not shown here. Equal entries are not always repeated.
# T1: α1AAR (Homo sapiens, UniProt P35348, N13Q/N22Q/N7Q)
# T1 construct: C-terminus truncated human α1AAR (residues 1–370, full length: 466); hemagglutinin signal peptide (N); 8×His (C); made in house; host or cells: Sf9 insect cells (baculovirus)
# T1 sequence (P35348 1-370 N7Q/N13Q/N22Q): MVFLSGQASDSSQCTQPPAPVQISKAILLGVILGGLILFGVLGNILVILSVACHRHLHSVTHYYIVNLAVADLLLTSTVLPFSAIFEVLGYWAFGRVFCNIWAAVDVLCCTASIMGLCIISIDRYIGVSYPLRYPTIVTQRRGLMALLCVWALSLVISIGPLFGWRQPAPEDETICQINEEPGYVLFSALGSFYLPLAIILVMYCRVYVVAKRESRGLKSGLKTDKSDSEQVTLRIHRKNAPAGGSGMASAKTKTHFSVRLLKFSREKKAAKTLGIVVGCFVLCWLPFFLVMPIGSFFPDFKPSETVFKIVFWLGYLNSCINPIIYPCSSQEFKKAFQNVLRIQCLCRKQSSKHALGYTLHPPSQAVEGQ
# B1: Nb29 (purified nanobody) (VHH)
# VHH: QVQLQESGGGLVQAGGSLRLSCAASGNISAHWKMGWYRQAPGKEREFVAGIGYANTNYADSVKGRFTISRDNAKNTVYLQMNSLKPEDTAVYYCAAYSYYRDHSYWGQGTQVTVSS
# notes: source: E. coli BL21(DE3), periplasmic (pET26b), purified (Ni-NTA, size-exclusion chromatography)
# B2: Nb29: synthetic nanobody (single domain antibody) that binds the extracellular vestibule of α1AAR, preferentially oxymetazoline-bound (antibody, V domains shown)
# VH: B1 VHH
# B3: Nb6: nanobody that engages the ICL3 of the inactive-state κ-opioid receptor (antibody, V domains shown)
# VH: QVQLQESGGGLVQAGESLRLSCAASGTIFRLYDMGWYRRVSGNQRELVASITSGGSTKYGDSVKGRFTISRDNAKNTVYLQMSSLKPEDTAVYYCNAEYRTGIWEELLDGWGQGTQVTVSS
# Tests used:
# α1AAR-kOR = target: T2, α1AAR-kOR (Homo sapiens, UniProt P35348, DEL205-275/INS204TLMILRLKSVRLLSGSREKDRNLRRITRLVL/M115W/N13Q/N22Q/N7Q/S113R); assay: [3H]prazosin radioligand binding, Sf9 membrane; conditions: for [3H]prazosin binding: listed as Tam
# T2 construct: C-terminus truncated human α1AAR (residues 1–370, full length: 466); hemagglutinin signal peptide (N); FLAG (N); 8×His (C); made in house; host or cells: Sf9 insect cells (membranes)
# [1] = target: T3, C-terminus truncated human α1AAR (residues 1-370; N7Q, N13Q, N22Q) (Homo sapiens, UniProt P35348, N7Q | N13Q | N22Q); assay: radioligand binding; [3H]prazosin competition binding with Nb29 as competitor, α1AAR in Sf9 membranes; 20 mM Tris-HCl pH 7.5, 100 mM NaCl; 1 h at room temperature; conditions: one partner purified
# T3 construct: α1A-adrenergic receptor, human, residues 1-370 (full length: 466); also called α1A-adrenergic receptor; source: Sf9 insect cells (baculovirus); not shown: FLAG, N-terminal, kept
# [2] = target: T3, C-terminus truncated human α1AAR …; assay: radioligand binding; [3H]prazosin competition binding with Nb29 as competitor, purified α1AAR bound to M1-Flag affinity resin; 20 mM HEPES pH 7.5, 100 mM NaCl, 0.01% MNG, 0.001% CHS, 2 mM CaCl2; 1 h at room temperature; conditions: both partners purified
# α1AAR = target: T1, α1AAR; assay: On-yeast titration of Nb29 for α1AAR, flow cytometry; type: binding
# Method: Yeast cells were analyzed by Accuri C6 and the ratio of double-positive yeast cells among anti-HA positive cells was calculated.
# [3] = 1 h, read-out: [3H]prazosin binding
# T2 sequence (P35348 with tags, fused parts or gaps with the stated changes limits assumed): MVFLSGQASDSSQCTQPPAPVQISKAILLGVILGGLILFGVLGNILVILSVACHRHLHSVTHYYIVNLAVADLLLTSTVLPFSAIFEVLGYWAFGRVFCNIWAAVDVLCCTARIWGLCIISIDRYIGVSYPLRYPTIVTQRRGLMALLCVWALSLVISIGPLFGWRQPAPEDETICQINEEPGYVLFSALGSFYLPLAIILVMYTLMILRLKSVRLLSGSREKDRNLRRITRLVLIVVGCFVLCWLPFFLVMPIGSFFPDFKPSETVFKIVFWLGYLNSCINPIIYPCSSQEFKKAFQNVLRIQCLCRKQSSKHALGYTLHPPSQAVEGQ
molecule,measurement,setting,value
"Cc1cc(C(C)(C)C)c(O)c(C)c1CC1=NCCN1 [Oxymetazoline, oxymetazoline]",remaining activity at 0.001 µM,α1AAR-kOR; [3],89.3%
same,remaining activity at 0.01 µM,α1AAR-kOR; [3],83.5%
same,remaining activity at 1 µM,α1AAR-kOR; [3],13.3%
"CCOc1ccccc1OCCN[C@H](C)Cc1ccc(OC)c(S(N)(=O)=O)c1 [Tamsulosin, tamsulosin]",[3H]prazosin binding,"α1AAR-kOR; Tam Log[M] -4, + 5 μM Nb6",0.3% and 1.4% and 0.5%
same,[3H]prazosin binding,α1AAR-kOR; Tam Log[M] -4,1.611% and 3.516% and 2.93%
same,[3H]prazosin binding,"α1AAR-kOR; Tam Log[M] -5, + 5 μM Nb6",2.5% and 2.1% and 1.4%
same,[3H]prazosin binding,α1AAR-kOR; Tam Log[M] -5,3.223% and 3.809% and 3.369%
same,[3H]prazosin binding,"α1AAR-kOR; Tam Log[M] -6, + 5 μM Nb6",3.3% and 4.3% and 2.7%
same,[3H]prazosin binding,α1AAR-kOR; Tam Log[M] -6,4.541% and 3.809% and 4.395%
same,[3H]prazosin binding,"α1AAR-kOR; Tam Log[M] -7, + 5 μM Nb6",48.154% and 49.4541% and 47.454%
same,[3H]prazosin binding,α1AAR-kOR; Tam Log[M] -7,39.4775% and 27.2705% and 36.2061%
same,[3H]prazosin binding,"α1AAR-kOR; Tam Log[M] -8, + 5 μM Nb6",86.9072% and 94.5245% and 104.442%
same,[3H]prazosin binding,α1AAR-kOR; Tam Log[M] -8,82.3975% and 81.5186% and 80.0537%
same,[3H]prazosin binding,"α1AAR-kOR; Tam Log[M] -9, + 5 μM Nb6",108.742% and 93.5245% and 98.1248%
same,[3H]prazosin binding,α1AAR-kOR; Tam Log[M] -9,91.626% and 91.1865%
same,[3H]prazosin binding,"α1AAR-kOR; Tam Log[M] -10, + 5 μM Nb6",97.6581% and 106.126% and 95.8247%
same,[3H]prazosin binding,α1AAR-kOR; Tam Log[M] -10,84.8877% and 109.009% and 95.459%
same,[3H]prazosin binding,"α1AAR-kOR; Tam Log[M] -11, + 5 μM Nb6",98.7416% and 100.042% and 78.5899%
same,[3H]prazosin binding,α1AAR-kOR; Tam Log[M] -11,106.152% and 96.4844% and 97.3633%
B1,Ki,[1],41 µM
same,Ki,[2],6.4 µM
B2,Nb29-expressing yeast cells bound to α1AAR,"α1AAR; 500 μM Noradrenaline, α1AAR 4 nM",4.281% and 5.07% and 1.08%
same,Nb29-expressing yeast cells bound to α1AAR,"α1AAR; 500 μM Noradrenaline, α1AAR 16 nM",4.4164% and 6.158% and 1.447%
same,Nb29-expressing yeast cells bound to α1AAR,"α1AAR; 500 μM Noradrenaline, α1AAR 64 nM",6.534% and 6.061% and 1.603%
same,Nb29-expressing yeast cells bound to α1AAR,"α1AAR; 500 μM Oxymetazoline, α1AAR 64 nM",56.0554% and 29.8113% and 58.3201%
same,Nb29-expressing yeast cells bound to α1AAR,"α1AAR; 500 μM Oxymetazoline, α1AAR 256 nM",56.0831% and 53.0792% and 88.1579%
same,Nb29-expressing yeast cells bound to α1AAR,"α1AAR; 500 μM Phentolamine, α1AAR 4 nM",4.281% and 2.134% and 0.9772%
same,Nb29-expressing yeast cells bound to α1AAR,"α1AAR; 500 μM Phentolamine, α1AAR 16 nM",4.4164% and 5.525% and 0.626%
same,Nb29-expressing yeast cells bound to α1AAR,"α1AAR; 500 μM Phentolamine, α1AAR 64 nM",6.534% and 6.745% and 1.138%
same,Nb29-expressing yeast cells bound to α1AAR,"α1AAR; 500 μM Tam, α1AAR 4 nM",1.7094% and 4.412% and 4.11%
same,Nb29-expressing yeast cells bound to α1AAR,"α1AAR; 500 μM Tam, α1AAR 16 nM",2.954% and 4.451% and 4.373%
same,Nb29-expressing yeast cells bound to α1AAR,"α1AAR; 500 μM Tam, α1AAR 64 nM",5.7377% and 5.491% and 6.25%
same,Nb29-expressing yeast cells bound to α1AAR,"α1AAR; 500 μM Tam, α1AAR 256 nM",3.361% and 11.8841% and 12.7329%
same,Bmax,α1AAR; Apo α1AAR,35.8 ± 25.7%
same,Kd,α1AAR; Apo α1AAR,209 ± 288 nM
same,Nb29-expressing yeast cells bound to α1AAR,"α1AAR; Apo, α1AAR 4 nM",4.848% and 6.304% and 2.077%
same,Nb29-expressing yeast cells bound to α1AAR,"α1AAR; Apo, α1AAR 16 nM",4.142% and 4.886% and 1.136%
same,Bmax,α1AAR; α1AAR + 500 μM noradrenaline,10.9 ± 3.4%
same,Bmax,α1AAR; α1AAR + 500 μM oxymetazoline,75.5 ± 13.8%
same,Bmax,α1AAR; α1AAR + 500 μM phentolamine,24.8 ± 4.0%
same,Bmax,α1AAR; α1AAR + 500 μM tamsulosin,8.90 ± 1.8%
B3,effect on [3H]prazosin binding,α1AAR-kOR,enhancement
same,Normalized [3H]prazosin-binding,α1AAR-kOR; with 5 μM Nb6,182.818% and 184.467% and 175.395%

# Reference: paper PMC10282093, “Structural basis of α1A-adrenergic receptor activation and recognition by an extracellular nanobody” (Nature Communications, 2023)
